From patent US20120252691, “MODIFIED NUCLEOTIDES METHODS AND KITS” (Pierce Biotechnology, Inc., published 2012)

Biological target: PABPC1-GST (Poly(A) binding protein) (UniProt P11940 P11940:1-636)
Experiment: pulldown; 10 mM Tris pH 7.5, 2.5 mM MgCl2, 10 mM KCl, 15% glycerol, tRNA, 4 C; also with UV crosslinking (FIG. 17)
Conditions: tags: GST; label: 3'-biotin-PEG12-alkane-cytidine
Method: Poly(A)₂₅ RNA was labeled using biotin-PEG₁₂-alkane-3′5′-bisphosphate cytidine and T4 RNA ligase. The Poly(A) Binding Protein (PABP), which binds the poly(A) tracts of mRNA, was cloned into a vector containing a GST-tag and expressed in a human cell-free in vitro translation (IVT) system. The lysate was diluted 1:10 for use in the binding reaction. The labeled RNA (50 pmol) was incubated with streptavidin magnetic beads (0.5 mg) for thirty minutes in 20 mM Tris-HCl (7.5), 100 mM NaCl, 1 mM EDTA. After washing, the beads were then incubated with 2-3 μl of diluted IVT lysate cell lysate in Binding Buffer (10 mM Tris-HCl, pH 7.5, 2.5 mM MgCl₂, 10 mM KCl, 15% glycerol, 0.5% Tween-20, and 10 μg tRNA) for one hour at 4° C. An unrelated RNA was used as a negative control, and beads were incubated with lysate alone to assess background. […] After separation by electrophoresis, PABP was detected using PABP antibody.
Synthetic RNA (50 pmol/reaction) was end-labeled using a twenty-fold excess of Biotin-PEG₁₂-Alkane-3′5′-Bisphosphate Cytidine with T4 RNA ligase. […] Normalized samples were separated by electrophoresis, transferred, and detected using PABPC1, GST (SNRPA1) antibodies (1:1000 dilution in TBST-0.5% BSA). […]

Sequence of PABPC1-GST (Poly(A) binding protein) (P11940 whole entry, one chain of several): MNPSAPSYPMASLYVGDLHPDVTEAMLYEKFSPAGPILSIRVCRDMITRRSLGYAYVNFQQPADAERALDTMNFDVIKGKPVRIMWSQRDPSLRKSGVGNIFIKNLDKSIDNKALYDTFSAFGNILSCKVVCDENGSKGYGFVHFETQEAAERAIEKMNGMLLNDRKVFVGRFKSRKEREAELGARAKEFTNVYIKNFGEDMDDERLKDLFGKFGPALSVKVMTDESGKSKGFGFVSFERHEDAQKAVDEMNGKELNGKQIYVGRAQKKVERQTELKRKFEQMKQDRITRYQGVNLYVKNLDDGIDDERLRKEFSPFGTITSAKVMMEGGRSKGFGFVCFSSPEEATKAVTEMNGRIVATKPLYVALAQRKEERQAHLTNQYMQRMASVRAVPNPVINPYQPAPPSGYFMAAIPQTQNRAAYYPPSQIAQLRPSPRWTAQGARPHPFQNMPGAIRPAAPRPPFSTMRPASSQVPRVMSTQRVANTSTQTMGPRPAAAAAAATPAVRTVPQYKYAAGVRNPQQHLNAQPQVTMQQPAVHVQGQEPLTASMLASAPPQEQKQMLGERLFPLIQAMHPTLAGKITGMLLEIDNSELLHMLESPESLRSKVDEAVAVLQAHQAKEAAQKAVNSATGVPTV

AAAAAAAAAAAAAAAAAAAAAAAAA (ssRNA) [Poly(A)25 RNA, biotin-PEG12]
binding result: binds
